Results reported in US20250152746A1, “BASE EDITING OF ANGPTL3 AND METHODS OF USING SAME FOR TREATMENT OF DISEASE” (Verve Therapeutics, Inc., priority 2020, published 2025).
Like-named read-outs stand apart in the source and are kept apart here. In the oligonucleotide strings, read from the 5' end, every base follows the letter of its sugar. An asterisk marks phosphorothioate; unmarked linkages are phosphodiester. Other units and linkages are bracketed, terminal groups are in braces. A string of capitals states the bases alone. m = 2'-O-methyl; r = 2'-OH (RNA)

B1: GA089: PCSK9 gRNA for ABE8.8 splice site editing, Human/Cyno (nucleic acid)
guide: CCCCAGGCTGCAGCTCCCACGTTTTAGAGCTAGAAATAGCAAGTTAAAATAAGGCTAGTCCGTTATCAACTTGAAAAAGTGGCACCGAGTCGGTGCTTTT
modifications: 2'-O-methyl at 1, 2, other sugars and backbone not given here; further chemistry not fully specified
notes: PCSK9 gRNA for ABE8.8 splice site editing, Human/Cyno
B2: GA108: ANGPTL3 gRNA; protospacer TCCCAACTGAAGGAGGCCAT (SEQ ID NO: 106) (nucleic acid)
guide: UCCCAACTGAAGGAGGCCATGTTTTAGAGCTAGAAATAGCAAGTTAAAATAAGGCTAGTCCGTTATCAACTTGAAAAAGTGGCACCGAGTCGGTGCTTTT
modifications: 2'-O-methyl at 1, 2, other sugars, backbone and T or U not given here; further chemistry not fully specified
B3: GA109: ANGPTL3 gRNA; protospacer GGCCTCCTTCAGTTGGGACA (SEQ ID NO: 107) (nucleic acid)
guide: GGCCTCCTTCAGTTGGGACAGTTTTAGAGCTAGAAATAGCAAGTTAAAATAAGGCTAGTCCGTTATCAACTTGAAAAAGTGGCACCGAGTCGGTGCTTTT
modifications: 2'-O-methyl at 1, 2, other sugars and backbone not given here; further chemistry not fully specified
B4: GA110: ANGPTL3 gRNA; protospacer GACCATGTCCCAACTGAAGG (SEQ ID NO: 108) (nucleic acid)
guide: GACCATGTCCCAACTGAAGGGTTTTAGAGCTAGAAATAGCAAGTTAAAATAAGGCTAGTCCGTTATCAACTTGAAAAAGTGGCACCGAGTCGGTGCTTTT
modifications: 2'-O-methyl at 1, 2, other sugars and backbone not given here; further chemistry not fully specified
B5: GA391 (nucleic acid)
guide: mC*mC*rGrCrArCrCrUrUrGrGrCrGrCrArGrCrGrGmGrUrUrUrUrArGmAmGmCmUmArGmAmAmAmUmAmGmCmAmArGrUrUmArAmArAmUrAmAmGmGmCmUmArGrUmCmCrGrUrUrAmUmCrArAmCmUmUrGmAmAmAmAmAmGmUmGrGmCmAmCmCmGmAmGmUmCmGmGmUmGmCmU*mU*mU*mU
B6: GA115: ANGPTL3 gRNA; protospacer AACATAGCAAATCTTGATTT (SEQ ID NO: 113) (nucleic acid)
guide: AACATAGCAAATCTTGATTTGTTTTAGAGCTAGAAATAGCAAGTTAAAATAAGGCTAGTCCGTTATCAACTTGAAAAAGTGGCACCGAGTCGGTGCTTTT
modifications: 2'-O-methyl at 1, 2, other sugars and backbone not given here; further chemistry not fully specified
B7: GA129: ANGPTL3 gRNA; protospacer AGTTCTTGGTGCTCTTGGCT (SEQ ID NO: 127) (nucleic acid)
guide: AGTTCTTGGTGCTCTTGGCTGTTTTAGAGCTAGAAATAGCAAGTTAAAATAAGGCTAGTCCGTTATCAACTTGAAAAAGTGGCACCGAGTCGGTGCTTTT
modifications: 2'-O-methyl at 1, 2, other sugars and backbone not given here; further chemistry not fully specified
B8: GA086: PCSK9 gRNA for ABE8.8 splice site editing, Human/Cyno (nucleic acid)
guide: TTCACCTGCTCCTGAGGGGCGTTTTAGAGCTAGAAATAGCAAGTTAAAATAAGGCTAGTCCGTTATCAACTTGAAAAAGTGGCACCGAGTCGGTGCTTTT
modifications: listed as RNA; modified_base 1: mod_base = OTHER; note = 2'-O-Methyl-uridine phosphorothioate; modified_base 2: mod_base = OTHER; modified_base
notes: as for B1
B9: GA111: ANGPTL3 gRNA; protospacer GCCAATGGCCTCCTTCAGTT (SEQ ID NO: 109) (nucleic acid)
guide: GCCAATGGCCTCCTTCAGTTGTTTTAGAGCTAGAAATAGCAAGTTAAAATAAGGCTAGTCCGTTATCAACTTGAAAAAGTGGCACCGAGTCGGTGCTTTT
modifications: 2'-O-methyl at 1, 2, other sugars and backbone not given here; further chemistry not fully specified
B10: GA090: PCSK9 gRNA for ABE8.8 splice site editing, Human/Cyno (nucleic acid)
guide: GCAGGTGACCGTGGCCTGCGGTTTTAGAGCTAGAAATAGCAAGTTAAAATAAGGCTAGTCCGTTATCAACTTGAAAAAGTGGCACCGAGTCGGTGCTTTT
modifications: listed as RNA; modified_base 1: mod_base = OTHER; note = 2'-O-Methyl-guanosine phosphorothioate; modified_base 2: mod_base = OTHER; note = 2'-O-Methyl-cytidine phosphorothioate; modified_b
notes: as for B1

How the values were obtained:
[1] = system: PCSK9 gene splice site; type: cell-based, human; conditions: for Editing % at Position 6: Human Primary Hepatocytes, gRNA co-transfected with ABE8.8 mRNA 1:1 by weight
Experimental: PCSK9 gRNAs were co-transfected with an equivalent amount of in vitro transcribed ABE8.8 mRNA MA002 (1:1 ratio by weight) into primary hepatocytes and processed as described in detailed methods. In one set of experiments, extracted genomic DNA was analyzed for base editing of the target splice site with next-generation sequencing of PCR amplicons generated around the target sites. Samples were prepared using the Nextera XT DNA library preparation kit (Illumina) according to the manufacturer's protocol. Briefly, two rounds of PCR were performed first to amplify the region of interest and second to add DNA sequences required for next generation sequencing and sample identification to the initial product. The final amplicon was sequenced on the Illumina MiSeq instrument according to the manufacturer's protocol.
Similarly, three gRNAs (GA098, GA099, GA100) were synthesized matching the 5′-[…]-3′ (SEQ ID NO: 15) (GA091) human protospacer sequence, as well as four gRNAs (GA067/GA101, GA102, GA103, GA347) matching the 5′-[…]-3′ (SEQ ID NO: 14) (GA067) cynomolgus protospacer sequence, but with more extensive chemical modifications of various kinds (Table 1). GA066 and GA095 contain the same chemical composition and modification pattern, as do GA067 and GA101 with one another. […] Each of the gRNAs described in Table 8, with an equivalent amount of in vitro transcribed ABE8.8 mRNA MA002 (1:1 ratio by weight), were co-transfected into primary human hepatocytes and primary cynomolgus hepatocytes via MessengerMax reagent, using various dilutions to assess for editing activity at different concentrations of test article. Three days after transfection, genomic DNA was harvested from the hepatocytes, and then assessed for base editing of the target splice site with next-generation sequencing.
Modifications and/or truncations to either the spacer or tracr portion of the gRNA was assessed by alteration of the GA066 spacer (5′-[…]-3′ (SEQ ID NO: 13)) (Table 12). […] Each of the gRNAs with an equivalent amount of in vitro transcribed ABE8.8 mRNA (1:1 ratio by weight) were co-transfected into primary human hepatocytes and primary cynomolgus hepatocytes and processed as described in detailed methods. […]

[2] = system: ANGPTL3 gene; experiment: ANGPTL3 gRNA/SpCas9 editing in primary human hepatocytes (Table 3); type: cell-based
Experimental: (§1) In set of experiments, PCSK9 gRNAs were co-transfected with an equivalent amount (1:1 ratio by weight) of in vitro transcribed commercially available SpCas9 mRNA MS002 purchased from TriLink Biotechnologies into primary human hepatocytes at 2500, 500, or 100 ng/RNA/mL and processed as described in detailed methods. Extracted genomic DNA was analyzed for gene editing at the target site with next-generation sequencing of PCR amplicons generated around the target sites. Samples were prepared using the Nextera XT DNA library preparation kit (Illumina) according to the manufacturer's protocol. Briefly, two rounds of PCR were performed first to amplify the region of interest and second to add DNA sequences required for next generation sequencing and sample identification to the initial product. The final amplicon was sequenced on the Illumina MiSeq instrument according to the manufacturer's protocol. A wide range of editing activities (Table 2) were observed. In a second set of experiments, ANGPTL3 gRNAs were co-transfected with an equivalent amount of in vitro transcribed SpCas9 mRNA (1:1 ratio by weight) into primary human hepatocytes and processed and analyzed similarly (Table 3).
(§2) Plating, culturing, and transfection of primary hepatocytes. Primary human liver hepatocytes (PHH) and primary cynomolgus liver hepatocytes (PCH) from BioIVT were cultured per the manufacturer's protocol. Briefly, primary human hepatocytes and primary cyno hepatocytes were obtained as frozen aliquots from BioIVT. Four lots of primary human hepatocytes, each derived from a de-identified individual donor, were used for the experiments: STL (main donor) was used for all experiments, including screening experiments and off-target experiments; HLY, JLP, and TLY were used for off-target experiments. The HFG lot of primary cyno hepatocytes were used for experiments. Following the manufacturer's instructions, cells were thawed and rinsed prior to plating in 24-well plates that had been coated with bovine collagen overnight, with a density of approximate 350,000 cells/well in INVITROGRO hepatocyte medium supplemented with TORPEDO antibiotic mix (BioIVT). The cells were thawed and resuspended in hepatocyte thawing medium followed by centrifugation at 100 g for 10 min at 4° C. The supernatant was discarded, and the pelleted cells resuspended in hepatocyte plating medium. Each vial contains approximately 5 million cells that were used for plating one 24-well plate. Plated cells were allowed to settle and adhere for 4-6 h in a tissue culture incubator at 37° C. under 5% CO2 atmosphere. After incubation, cells were checked for monolayer formation. The incubating media were then replaced with fresh hepatocyte maintenance media (complete INVITROGRO medium obtained from BioIVT, the cell line provider). The cells thus became ready for transfection. Each of the gRNAs were co-transfected with an equivalent amount of in vitro transcribed ABE8.8 mRNA (1:1 ratio by molecular weight) into primary human hepatocytes via MessengerMax reagent (Lipofectamine), using various dilutions to assess for editing activity at different concentrations of test article. MessengerMAX from Thermo Fisher is used for transfection. Solution A: desired amount of guide RNA is mixed with 1:1 wt ratio of mRNA in OptiMEM. Solution B: MessengerMAX in OptiMEM. After mixing solutions A and B, the mixture was incubated at room temperature for 20 min. 60 μL of the incubated solution was added dropwise to each cell wells. For protospacer sequences that were a perfect match to the corresponding cynomolgous monkey PCSK9 or ANGPTL3 gene sequence, each gRNA was also co-transfected with an equivalent amount of ABE8.8 mRNA (1:1 ratio by molecular weight) into primary cynomolgous hepatocytes, and followed the same transfection protocol. The cells were then allowed to remain at 37° C. for 3 days. […]

[3] = system: ANGPTL3 gene; experiment: ANGPTL3 gRNA/SpCas9 editing in primary cynomolgus hepatocytes (Table 3); type: cell-based, cynomolgus monkey
Experimental: as §1, §2

Molecule	Human Primary Hepatocytes-splice site editing % 1250 ng/mL [1] [%]	Human Primary Hepatocytes-splice site editing % 2500 ng/mL [1] [%]	Human Primary Hepatocytes-splice site editing % 5000 ng/mL [1] [%]	Human Primary Hepatocyte Editing % 100 ng/ml [2] [%]	Human Primary Hepatocyte Editing % 500 ng/mL [2] [%]	Cyno Primary Hepatocyte Editing % 100 ng/mL [3] [%]	Cyno Primary Hepatocyte Editing % 500 ng/ml [3] [%]	further results
B1	5.4	14.1	18.1					
B2				4.95	19.43	4.11	15.49	
B3				6.60	18.07	4.15	15.11	
B4				5.37	13.63	8.59	15.99	
B5								Editing % at Position 6 ([1]; 312.5 ng/mL, rep1): 16.86%; Editing % at Position 6 ([1]; 312.5 ng/mL, rep2): 15.78%; Editing % at Position 6 ([1]; 625 ng/mL, rep1): 27.12%; Editing % at Position 6 ([1]; 625 ng/mL, rep2): 18.67%; Editing % at Position 6 ([1]; 1250 ng/mL, rep1): 25.43%; Editing % at Position 6 ([1]; 1250 ng/mL, rep2): 27.3%; Editing % at Position 6 ([1]; 2500 ng/mL, rep1): 25.58%; Editing % at Position 6 ([1]; 2500 ng/mL, rep2): 30.06%
B6						12.58	25.51	
B7						5.36	20.06	
B8	2.9	4.9	5.7					
B9				10.72	24.08	22.61	28.98	
B10	0.3	0.5	0.4					
